Measurements: PMC8278493, “Structure of the TELO2-TTI1-TTI2 complex and its function in TOR recruitment to the R2TP chaperone” (Cell Reports, 2021)
Each block holds one binder with its values, some of them ahead of it.

B2: S. cerevisiae Rvb1p-Rvb2p complex (complex)
chain 1: MVAISEVKENPGVNSSNSGAVTRTAAHTHIKGLGLDESGVAKRVEGGFVGQIEAREACGVIVDLIKAKKMSGRAILLAGGPSTGKTALALAISQELGPKVPFCPLVGSELYSVEVKKTETLMENFRRAIGLRIKETKEVYEGEVTELTPEDAENPLGGYGKTISHVIVGLKSAKGTKTLRLDPTIYESIQREKVSIGDVIYIEANTGAVKRVGRSDAYATEFDLETEEYVPLPKGEVHKKKEIVQDVTLHDLDVANARPQGGQDVISMMGQLLKPKKTEITEKLRQEVNKVVAKYIDQGVAELIPGVLFIDEVNMLDIEIFTYLNKALESNIAPVVVLASNRGMTTVRGTEDVISPHGVPPDLIDRLLIVRTLPYDKDEIRTIIERRATVERLQVESSALDLLATMGTETSLRYALQLLAPCGILAQTSNRKEIVVNDVNEAKLLFLDAKRSTKILETSANYL
chain 2: MSIQTSDPNETSDLKSLSLIAAHSHITGLGLDENLQPRPTSEGMVGQLQARRAAGVILKMVQNGTIAGRAVLVAGPPSTGKTALAMGVSQSLGKDVPFTAIAGSEIFSLELSKTEALTQAFRKSIGIKIKEETELIEGEVVEIQIDRSITGGHKQGKLTIKTTDMETIYELGNKMIDGLTKEKVLAGDVISIDKASGKITKLGRSFARSRDYDAMGADTRFVQCPEGELQKRKTVVHTVSLHEIDVINSRTQGFLALFTGDTGEIRSEVRDQINTKVAEWKEEGKAEIVPGVLFIDEVHMLDIECFSFINRALEDEFAPIVMMATNRGVSKTRGTNYKSPHGLPLDLLDRSIIITTKSYNEQEIKTILSIRAQEEEVELSSDALDLLTKTGVETSLRYSSNLISVAQQIAMKRKNNTVEVEDVKRAYLLFLDSARSVKYVQENESQYIDDQGNVQISIAKSADPDAMDTTE
notes: Rvb1p, Saccharomyces cerevisiae; Rvb2p, Saccharomyces cerevisiae; also called yR2; R2; source: expressed and purified as previously described (Rivera-Calzada et al., 2017); copies: 3 + 3

Experiments:
Conditions in all cases: both partners purified
[1] = target: T1, S. cerevisiae Tel2p-Tti1p-Tti2p complex (S. cerevisiae, UniProt P53038 1-688; P36097 1-1038; P47168 1-421); experiment: pull-down; strep beads hold the tandem strep-tag on Tah1p in yeast TP or R2TP; 20 mM HEPES pH 7.85, 140 mM NaCl, 0.5 mM TCEP, 0.03% CHAPS; 45 min at 4°C; Coomassie-stained SDS-PAGE
T1 construct: Tel2p, Saccharomyces cerevisiae; Tti1p, Saccharomyces cerevisiae; Tti2p, Saccharomyces cerevisiae; Purified from insect cells to ensure post-translational modifications on Tel2p; The methods say in general that the GST-tag was cleaved; also called yTTT; yeast TTT; source: Sf9, co-infected with Tti1p-Tti2p and Tel2p viruses, purified; copies: + +
T1 sequence (P53038 whole entry, chain 1 of 3): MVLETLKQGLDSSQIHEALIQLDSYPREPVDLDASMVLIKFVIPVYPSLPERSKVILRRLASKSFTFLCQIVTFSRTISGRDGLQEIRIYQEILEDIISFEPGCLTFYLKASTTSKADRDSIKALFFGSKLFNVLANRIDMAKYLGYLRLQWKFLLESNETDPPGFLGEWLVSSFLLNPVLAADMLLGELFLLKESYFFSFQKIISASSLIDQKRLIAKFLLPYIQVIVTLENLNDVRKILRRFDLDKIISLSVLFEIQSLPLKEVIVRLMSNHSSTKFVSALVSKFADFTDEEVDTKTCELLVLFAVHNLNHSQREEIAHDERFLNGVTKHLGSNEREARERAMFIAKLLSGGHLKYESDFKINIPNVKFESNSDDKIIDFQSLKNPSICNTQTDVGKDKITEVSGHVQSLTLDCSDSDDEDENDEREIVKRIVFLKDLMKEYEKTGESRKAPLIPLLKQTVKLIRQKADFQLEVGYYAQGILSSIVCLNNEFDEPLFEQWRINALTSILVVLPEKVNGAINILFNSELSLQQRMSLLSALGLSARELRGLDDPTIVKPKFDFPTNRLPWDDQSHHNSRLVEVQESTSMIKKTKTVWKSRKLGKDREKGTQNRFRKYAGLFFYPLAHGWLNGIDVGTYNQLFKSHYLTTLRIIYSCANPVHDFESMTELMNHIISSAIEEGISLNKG
T1 sequence (P36097 whole entry, chain 2 of 3): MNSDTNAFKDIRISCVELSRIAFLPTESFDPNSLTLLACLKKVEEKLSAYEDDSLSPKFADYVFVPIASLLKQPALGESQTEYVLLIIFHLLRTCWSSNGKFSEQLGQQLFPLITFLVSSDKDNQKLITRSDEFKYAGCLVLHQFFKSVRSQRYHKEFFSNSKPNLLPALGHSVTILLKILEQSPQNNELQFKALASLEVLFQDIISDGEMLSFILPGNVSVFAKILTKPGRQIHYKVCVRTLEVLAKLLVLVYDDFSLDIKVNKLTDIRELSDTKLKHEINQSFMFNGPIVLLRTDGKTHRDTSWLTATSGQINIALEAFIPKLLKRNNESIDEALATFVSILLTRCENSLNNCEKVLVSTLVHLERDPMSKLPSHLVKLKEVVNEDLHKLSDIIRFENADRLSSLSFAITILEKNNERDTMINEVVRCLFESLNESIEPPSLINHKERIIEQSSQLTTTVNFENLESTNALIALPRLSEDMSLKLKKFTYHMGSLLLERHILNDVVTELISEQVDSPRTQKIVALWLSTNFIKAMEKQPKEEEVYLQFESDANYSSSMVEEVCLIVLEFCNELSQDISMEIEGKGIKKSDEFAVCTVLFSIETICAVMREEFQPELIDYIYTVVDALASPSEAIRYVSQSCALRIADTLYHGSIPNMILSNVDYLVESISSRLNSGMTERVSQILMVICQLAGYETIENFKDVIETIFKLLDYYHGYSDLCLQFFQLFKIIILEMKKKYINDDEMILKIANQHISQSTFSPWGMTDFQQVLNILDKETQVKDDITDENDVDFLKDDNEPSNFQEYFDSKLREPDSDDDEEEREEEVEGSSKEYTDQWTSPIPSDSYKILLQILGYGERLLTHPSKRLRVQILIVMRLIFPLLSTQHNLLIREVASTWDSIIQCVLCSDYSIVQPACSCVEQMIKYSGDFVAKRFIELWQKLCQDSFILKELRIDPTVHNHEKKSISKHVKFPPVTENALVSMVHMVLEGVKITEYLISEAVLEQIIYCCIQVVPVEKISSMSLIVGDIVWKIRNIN
T1 sequence (P47168 whole entry, chain 3 of 3): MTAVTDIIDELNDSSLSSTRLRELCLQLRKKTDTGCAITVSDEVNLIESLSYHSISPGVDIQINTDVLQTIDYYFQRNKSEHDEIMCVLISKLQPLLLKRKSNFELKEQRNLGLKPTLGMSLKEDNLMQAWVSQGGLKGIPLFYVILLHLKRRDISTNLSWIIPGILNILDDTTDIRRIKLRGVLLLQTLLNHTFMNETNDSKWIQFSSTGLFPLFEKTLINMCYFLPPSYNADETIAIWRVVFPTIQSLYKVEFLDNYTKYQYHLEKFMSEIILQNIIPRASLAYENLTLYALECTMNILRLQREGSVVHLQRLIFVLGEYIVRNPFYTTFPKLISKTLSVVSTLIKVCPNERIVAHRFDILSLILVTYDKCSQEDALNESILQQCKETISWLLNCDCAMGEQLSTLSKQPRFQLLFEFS

[2] = target: B2; experiment: as above
[3] = target: T2, S. cerevisiae TTT complex in which Tti1p carries a C-terminal FLAG-tag (S. cerevisiae, UniProt P53038 1-688; P36097 1-1038; P47168 1-421); experiment: co-IP; anti-FLAG beads hold yeast TTT by FLAG-tagged Tti1p; purified KmTOR-KmLst8, with or without yeast R2; Coomassie-stained SDS-PAGE
T2 construct: Tel2p, Saccharomyces cerevisiae; Tti1p, Saccharomyces cerevisiae; Tti2p, Saccharomyces cerevisiae; The cloning of the FLAG-tagged Tti1p is not described in the methods; also called FLAG-tagged TTT; FLAG-tagged Tti1p; source: Sf9, purified; not shown: FLAG, C-terminal, kept; copies: + +
T2 sequence (P53038 whole entry, chain 1 of 3): as the sequence (P53038 whole entry, chain 1 of 3) above
T2 sequence (P36097 whole entry, chain 2 of 3): as the sequence (P36097 whole entry, chain 2 of 3) above
T2 sequence (P47168 whole entry, chain 3 of 3): as the sequence (P47168 whole entry, chain 3 of 3) above

[4] = target: T3, human TTI1, full length, untagged (human, UniProt O43156 1-1089); experiment: cryo-EM structure; human R2 saturated with an excess of TTT; symmetry expansion and multi-body refinement; ADP in all six sites
T3 construct: TTI1, human, 1089 residues; In PDB 7OLE TTI1 is modelled as poly-alanine helices only; also called full-length untagged TTI1; source: Sf9, co-expressed with GST-TTI2 constructs (in lysate); co-expressed with TTI2 and TELO2 and purified within TTT
T3 sequence (O43156 whole entry): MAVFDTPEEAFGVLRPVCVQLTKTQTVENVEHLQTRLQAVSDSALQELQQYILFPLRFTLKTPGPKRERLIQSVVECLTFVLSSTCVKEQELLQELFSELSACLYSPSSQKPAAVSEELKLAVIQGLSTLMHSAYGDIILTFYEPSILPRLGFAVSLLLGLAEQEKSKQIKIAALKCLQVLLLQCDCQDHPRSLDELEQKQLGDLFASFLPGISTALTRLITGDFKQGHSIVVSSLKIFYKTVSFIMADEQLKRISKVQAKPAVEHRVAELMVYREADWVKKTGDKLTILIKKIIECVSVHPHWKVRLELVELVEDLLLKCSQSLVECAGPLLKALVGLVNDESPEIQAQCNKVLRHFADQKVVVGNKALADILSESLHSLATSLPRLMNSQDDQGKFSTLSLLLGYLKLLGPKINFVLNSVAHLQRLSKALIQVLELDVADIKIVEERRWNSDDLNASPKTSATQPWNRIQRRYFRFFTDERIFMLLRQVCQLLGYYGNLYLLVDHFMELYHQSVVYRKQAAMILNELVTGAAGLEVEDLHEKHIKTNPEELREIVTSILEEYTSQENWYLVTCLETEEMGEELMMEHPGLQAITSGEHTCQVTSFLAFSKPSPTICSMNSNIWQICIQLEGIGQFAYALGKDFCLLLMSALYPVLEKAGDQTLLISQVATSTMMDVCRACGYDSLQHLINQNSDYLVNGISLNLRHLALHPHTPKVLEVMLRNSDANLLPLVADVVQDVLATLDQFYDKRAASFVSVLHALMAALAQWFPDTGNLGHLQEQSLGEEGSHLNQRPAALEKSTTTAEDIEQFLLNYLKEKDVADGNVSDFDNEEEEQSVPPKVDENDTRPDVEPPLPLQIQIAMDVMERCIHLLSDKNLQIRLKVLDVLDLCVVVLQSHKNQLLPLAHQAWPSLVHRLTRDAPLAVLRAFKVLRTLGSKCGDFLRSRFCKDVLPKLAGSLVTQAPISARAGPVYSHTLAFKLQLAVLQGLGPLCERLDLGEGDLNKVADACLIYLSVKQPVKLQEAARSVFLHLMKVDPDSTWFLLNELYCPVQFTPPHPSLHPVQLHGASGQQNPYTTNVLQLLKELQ

[5] = target: T4, human TTI1-TTI2 subcomplex (human, UniProt O43156 1-1089; Q6NXR4 1-508); experiment: pull-down; GST beads hold the GST-tag on TELO2 (5 μM); 2 μM RUVBL1/2, RUVBL1/2ΔDII or isolated DII domains; 20 mM HEPES pH 7.85, 140 mM NaCl, 0.001% Tween 20; 45 min at 4°C; Coomassie-stained SDS-PAGE
T4 construct: TTI1, human, 1089 residues; TTI2, human, 508 residues; Cloned as TTI1 and GST-TTI2; the methods name both a cleavage of the GST-tag and GST-TTI2-TTI1 as a sample of the pull-downs; also called T2; source: Sf9, co-expressed, purified
T4 sequence (O43156 whole entry, the tested form may be a part, one chain of several): as the sequence (O43156 whole entry) above

B1: S. cerevisiae Tah1p-Pih1p complex with a tandem strep-tag on the N terminus of Tah1p (complex)
chain 1: MSQFEKQKEQGNSLFKQGLYREAVHCYDQLITAQPQNPVGYSNKAMALIKLGEYTQAIQMCQQGLRYTSTAEHVAIRSKLQYRLELAQGAVGSVQIPVVEVDELPEGYDRS
chain 2: MADFLLRPIKQRHRNEDKYVSVDAADGSVSKIEPIADFVIKTKLLSANGPEKLQDGRKVFINVCHSPLVPKPEVDFNARIVFPLIIQNEWEIPIITSCYRMDHDKKGQECYVWDCCINSDCSRWICDDIQLREILVEWCLESCEIRDSVVLCRDRIAFPKMKKKGAELPALEVLNDELHQDYKAKMHKIIEEEAGDPMSILRGRNDDGDDNNDPDDGTLPPLFPIENKISGAKIEEIDKNEIAHRNLKQAPAPAPAPHEQQEDVPEYEVKMKRFKGAAYKLRILIENKAPNSKPDRFSPSYNFAENILYINGKLSIPLPRDIVVNAADIKIFHIRKERTLYIYI
notes: Tah1p, Saccharomyces cerevisiae; Pih1p, Saccharomyces cerevisiae; also called yTP; TP; source: expressed and purified as previously described (Rivera-Calzada et al., 2017); not shown: tandem Strep, N-terminal, kept
binding result [1]: binds
binding result [2]: binds

Binder: B2
binding result [3]: binds

B3: human TELO2 (as in the purified TTT complex) (natural protein, UniProt Q9Y4R8 1-837, looked up)
chain: MEPAPSEVRLAVREAIHALSSSEDGGHIFCTLESLKRYLGEMEPPALPREKEEFASAHFSPVLRCLASRLSPAWLELLPHGRLEELWASFFLEGPADQAFLVLMETIEGAAGPSFRLMKMARLLARFLREGRLAVLMEAQCRQQTQPGFILLRETLLGKVVALPDHLGNRLQQENLAEFFPQNYFRLLGEEVVRVLQAVVDSLQGGLDSSVSFVSQVLGKACVHGRQQEILGVLVPRLAALTQGSYLHQRVCWRLVEQVPDRAMEAVLTGLVEAALGPEVLSRLLGNLVVKNKKAQFVMTQKLLFLQSRLTTPMLQSLLGHLAMDSQRRPLLLQVLKELLETWGSSSAIRHTPLPQQRHVSKAVLICLAQLGEPELRDSRDELLASMMAGVKCRLDSSLPPVRRLGMIVAEVVSARIHPEGPPLKFQYEEDELSLELLALASPQPAGDGASEAGTSLVPATAEPPAETPAEIVDGGVPQAQLAGSDSDLDSDDEFVPYDMSGDRELKSSKAPAYVRDCVEALTTSEDIERWEAALRALEGLVYRSPTATREVSVELAKVLLHLEEKTCVVGFAGLRQRALVAVTVTDPAPVADYLTSQFYALNYSLRQRMDILDVLTLAAQELSRPGCLGRTPQPGSPSPNTPCLPEAAVSQPGSAVASDWRVVVEERIRSKTQRLSKGGPRQGPAGSPSRFNSVAGHFFFPLLQRFDRPLVTFDLLGEDQLVLGRLAHTLGALMCLAVNTTVAVAMGKALLEFVWALRFHIDAYVRQGLLSAVSSVLLSLPAARLLEDLMDELLEARSWLADVAEKDPDEDCRTLALRALLLLQRLKNRLLPPASP
notes: TELO2, human; Only the N-terminal domain (TELO2-N) is seen in the map; source: Sf9, purified within TTT; not shown: GST, N-terminal, cleaved
binding result [4]: binds

Further lines, results first:

binding result [5]: binds
B4: human GST-TELO2 (natural protein, UniProt Q9Y4R8 1-837, looked up)
chain: MEPAPSEVRLAVREAIHALSSSEDGGHIFCTLESLKRYLGEMEPPALPREKEEFASAHFSPVLRCLASRLSPAWLELLPHGRLEELWASFFLEGPADQAFLVLMETIEGAAGPSFRLMKMARLLARFLREGRLAVLMEAQCRQQTQPGFILLRETLLGKVVALPDHLGNRLQQENLAEFFPQNYFRLLGEEVVRVLQAVVDSLQGGLDSSVSFVSQVLGKACVHGRQQEILGVLVPRLAALTQGSYLHQRVCWRLVEQVPDRAMEAVLTGLVEAALGPEVLSRLLGNLVVKNKKAQFVMTQKLLFLQSRLTTPMLQSLLGHLAMDSQRRPLLLQVLKELLETWGSSSAIRHTPLPQQRHVSKAVLICLAQLGEPELRDSRDELLASMMAGVKCRLDSSLPPVRRLGMIVAEVVSARIHPEGPPLKFQYEEDELSLELLALASPQPAGDGASEAGTSLVPATAEPPAETPAEIVDGGVPQAQLAGSDSDLDSDDEFVPYDMSGDRELKSSKAPAYVRDCVEALTTSEDIERWEAALRALEGLVYRSPTATREVSVELAKVLLHLEEKTCVVGFAGLRQRALVAVTVTDPAPVADYLTSQFYALNYSLRQRMDILDVLTLAAQELSRPGCLGRTPQPGSPSPNTPCLPEAAVSQPGSAVASDWRVVVEERIRSKTQRLSKGGPRQGPAGSPSRFNSVAGHFFFPLLQRFDRPLVTFDLLGEDQLVLGRLAHTLGALMCLAVNTTVAVAMGKALLEFVWALRFHIDAYVRQGLLSAVSSVLLSLPAARLLEDLMDELLEARSWLADVAEKDPDEDCRTLALRALLLLQRLKNRLLPPASP
notes: TELO2, human; The tagged subunit of m4, as the bait with which TTI1-TTI2 is found; also called GST-TEL2; not shown: GST, N-terminal, kept

binding result [4]: binds
B5: human TTI2 (as in the purified TTT complex) (natural protein, UniProt Q6NXR4 1-508, looked up)
chain: MELDSALEAPSQEDSNLSEELSHSAFGQAFSKILHCLARPEARRGNVKDAVLKDLGDLIEATEFDRLFEGTGARLRGMPETLGQVAKALEKYAAPSKEEEGGGDGHSEAAEKAAQVGLLFLKLLGKVETAKNSLVGPAWQTGLHHLAGPVYIFAITHSLEQPWTTPRSREVAREVLTSLLQVTECGSVAGFLHGENEDEKGRLSVILGLLKPDLYKESWKNNPAIKHVFSWTLQQVTRPWLSQHLERVLPASLVISDDYQTENKILGVHCLHHIVLNVPAADLLQYNRAQVLYHAISNHLYTPEHHLIQAVLLCLLDLFPILEKTLHWKGDGARPTTHCDEVLRLILTHMEPEHRLLLRRTYARNLPAFVNRLGILTVRHLKRLERVIIGYLEVYDGPEEEARLKILETLKLLMQHTWPRVSCRLVVLLKALLKLICDVARDPNLTPESVKSALLQEATDCLILLDRCSQGRVKGLLAKIPQSCEDRKVVNYIRKVQQVSEGAPYNGT
notes: TTI2, human, 508 residues; In PDB 7OLE TTI2 is modelled as poly-alanine helices only; source: Sf9, purified within TTT
